Experimental data reported in patent US5541071 (New England Medical Center Hospitals, Inc., dated 1996).
Square brackets hold non-standard residues; d marks the D form. Ends that are not written are not given here. sY = N[C@@H](Cc1ccc(OS(=O)(=O)O)cc1)C(=O)O

Key:
[1] = molecular target: T1, canine parietal cell gastrin receptor (recombinant, expressed from clone GR-1 in COS-7 cells) (canine); test: competition with 40 pM 125I-CCK-8 on intact GR-1 transfected COS-7 cells
T1 chain: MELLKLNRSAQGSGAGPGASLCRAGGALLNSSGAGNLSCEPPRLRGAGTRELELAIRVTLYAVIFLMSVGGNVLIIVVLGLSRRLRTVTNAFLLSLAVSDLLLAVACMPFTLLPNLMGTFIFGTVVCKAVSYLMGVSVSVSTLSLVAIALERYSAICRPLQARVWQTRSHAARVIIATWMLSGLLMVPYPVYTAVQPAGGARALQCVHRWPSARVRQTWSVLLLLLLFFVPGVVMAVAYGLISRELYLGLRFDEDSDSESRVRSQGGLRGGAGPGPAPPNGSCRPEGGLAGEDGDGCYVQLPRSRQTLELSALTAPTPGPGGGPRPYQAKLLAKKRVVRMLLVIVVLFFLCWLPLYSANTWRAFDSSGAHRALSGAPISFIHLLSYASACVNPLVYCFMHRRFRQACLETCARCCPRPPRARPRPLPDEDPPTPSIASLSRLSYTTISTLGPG
Method: (§1) COS-7 cells (1.5 ×10^6) were plated in 10 cm culture dishes (Nunc) and grown in DMEM/10% fetal calf serum, 5% CO_2 at 37° C. […] Twenty-four hours following transfection, cells were split into 24-well dishes (Nunc), 5000 cells/well. […] Equilibrium binding occurred after incubation for 80 min at 37° C. Cell monolayers were subsequently washed three times and bound radioactivity was quantified after cell hydrolysis in 1N NaOH.

[2] = molecular target: T1, canine parietal cell gastrin receptor …; test: competition with 125I-CCK-8 on isolated membranes of GR-1 transfected COS-7 cells, filtration
Method: Binding parameters were also measured in isolated plasma membranes from COS-7 cells transfected with GR-1. Binding was performed for 60 min at 22° C.

[3] = molecular target: T1, canine parietal cell gastrin receptor …; test: radioligand saturation binding, 2.5 to 1,000 pM 125I-CCK-8, GR-1 transfected COS-7 cells
Method: as §1

[4] = molecular target: canine parietal cell gastrin receptor (recombinant, expressed from clone GR-1 in COS-7 cells) (canine)
[5] = molecular target: canine parietal cell gastrin receptor (recombinant, expressed from clone GR-1 in COS-7 cells) (canine); remark: listed apart in the source

## D[sY]MGWMDF-NH2 [CCK-8 (unlabeled)]
[1]
  IC50: 0.09 nM
[2]
  IC50: 0.08 nM

## DYMGWMDF (ends and bridges not checked; also: 125I label, site not given here) [125I-CCK-8]
[3]
  Kd: 0.08 nM

## DYMGWMDF-NH2 [CCK-8-desulfate]
[2]
  IC50: 1.5 nM

## QGPWLEEEEEAYGWMDF-NH2 (ends and bridges not checked) [gastrin I]
[4]
  free cytosolic calcium, [Ca2+] (fura-2 fluorescence): 142 nM
[5]
  phosphoinositide metabolites (Ins-1,4,5-P3, Ins-1,3,4,5-P4) by HPLC (% over control): 741
[1]
  IC50: 0.26 nM
[2]
  IC50: 0.4 nM
